What was measured:
[1] = NGAL encapsulation efficiency in ZIF-8 crystals (ELISA of supernatant); format: physicochemical
Description: To quantify the encapsulation efficiency, the supernatant after crystals centrifugation was collected and remaining NGAL concentration was determined using sandwich enzyme-linked immunosorbent assay (ELISA). […] The encapsulation efficiency was calculated by subtracting the remaining NGAL amount in the supernatant after encapsulation and centrifugation (concentration measured by ELISA) from the total NGAL amount.
Characterization. To characterize protein-embedded crystals, crystals were centrifuged and washed with DI water twice (8 k r.p.m. for 20 minutes). To calculate the encapsulation efficiency, the supernatant after first centrifugation was collected and assayed by ELISA. SEM images were obtained using a FEI Nova 2300 field-emission scanning electron microscope at an acceleration voltage of 10 kV. Fourier transform infrared spectroscopy (FTIR) measurements were conducted using a Nicolette Nexus 470 spectrometer. The Raman spectra were obtained using a Renishaw inVia confocal Raman spectrometer mounted on a Leica microscope with a 50× objective and a 514 nm wavelength diode laser as an illumination source. The X-ray diffraction (XRD) measurements of the samples were recorded on a Bruker D8-Advance X-ray powder diffractometer using Cu Kα radiation (λ=1.5406 Å).

[2] = Preservation of NGAL in patient urine dried on paper (ELISA); format: physicochemical; settings: three acute kidney injury patients, 1 week
Description: Following the successful optimization of ZIF-8 encapsulation using spiked artificial urine samples, the applicability of this technique to patient urine samples was evaluated. Three acute kidney injury patients with different urinary NGAL levels (Patient #1: 32.8 ng/ml, Patient #2: 17.4 ng/ml and Patient #3: 97.5 ng/ml, quantified by ELISA and confirmed by Western blotting, FIG. 15) were selected. […] Thus, protein biomarkers in the mixture are not subjected to extremely low or high pH (Table 2). To assess the preservation efficacy of NGAL, the urine samples with and without ZIF-8 encapsulation dried on paper substrates were stored at 25 or 40° C. for 1 week. NGAL concentration in the eluate was quantified using ELISA. […] Frozen liquid sample (−20° C.) was used as a reference. POSs represent 3 distinct Positive Control signal intensities (POS1>POS2>POS3). Results are the mean and standard deviation from two parallel dots for each biomarker. The frozen-liquid samples stored at −20° C. were employed as the reference.
Sample preparation. NGAL-spiked artificial urine (50 μg/ml of NGAL, 25 μl) or patient urine (25 μl) was first mixed with 2-methylimidazole aqueous solution (12.5 μl) and then zinc acetate dihydrate aqueous solution (12.5 μl). The final concentrations of 2-methylimidazole after mixing were 320 mM, 160 mM, 80 mM and 40 mM. […]

B1: neutrophil gelatinase-associated lipocalin (protein, UniProt P80188 21-198, looked up)
Neutrophil …: QDSTSDLIPAPPLSKVPLQQNFQDNQFQGKWYVVGLAGNAILREDKDPQKMYATIYELKEDKSYNVTSVLFRKKKCDYWIRTFVPGCQPGEFTLGNIKSYPGLTSYLVRVVSTNYNQHAMVFFKKVSQNREYFKITLYGRTKELTSELKENFIRFSKSLGLPENHIVFPVPIDQCIDG
notes: urinary biomarker for acute kidney injury; human recombinant
encapsulation of NGAL ([1]; 40 mM 2-methylimidazole with 10 mM zinc acetate): ~70%
encapsulation efficiency of NGAL ([1]; NGAL spiked in artificial urine, 40 mM zinc acetate and 160 mM 2-methylimidazole): ~95%
encapsulation efficiency of NGAL ([1]; control: mixing NGAL-spiked artificial urine with pure pre-formed ZIF-8 crystals (physical adsorption)): ~10%
NGAL preservation in patient urine ([2]; 25° C.): less than 40%
NGAL preservation in patient urine ([2]; 40° C.): less than 40%

From patent publication US11856945B2, “Methods and systems for preparing and preserving a biological sample” (Washington University, priority 2017, dated 2024)
